Assay results: publication PMC3308894
Several values for one entry are separate records, joined by “and”; a condition that tells them apart may be missing. Identical values can stand only once. One block for each substance: values may come before it.

Columns and labels:
Assay in all cases: other fluorescence titration
[1] = target: tri-nucleosome array LE (linker-ended), 621-bp DNA (Xenopus laevis)
[2] = target: an individual nucleosome, whether mono or as part of an array
[3] = target: tail-less histone H2A-H2B complex, fluorescently labeled (Xenopus laevis) (UniProt P06897)
[4] = target: 207-bp linker DNA-containing nucleosome (Nuc207) (Xenopus laevis)
[5] = target: histone H2A-H2B complex, fluorescently labeled (Xenopus laevis) (UniProt P06897)
[6] = target: 147-bp nucleosome, which contains no linker DNA (Nuc147) (Xenopus laevis)
[7] = target: tri-nucleosome array NLE (nonlinker-ended), 561-bp DNA (Xenopus laevis)
[8] = target: histone H3-H4 complex, fluorescently labeled (Xenopus laevis) (UniProt P84233)

Kd [1]: 26 nM | stoichiometry N (FACT:tri-nucleosome) [1]: 3.3 | stoichiometry N (FACT molecules per nucleosome) [2]: 1 and 2 | fold lower affinity than for tail-containing H2A-H2B [3]: 7 fold | Kd [4]: 22 nM | Kd [5]: 31 nM | Kd [6]: 64 nM | Kd [7]: 36 nM | stoichiometry N (FACT:tri-nucleosome) [7]: 2.4
Substance: FACT (facilitates chromatin transcription) complex, full-length, de-phosphorylated (from UniProt Q9Y5B9;Q08945)

fold less affinity than FACT [4]: 20 fold | fold less affinity than SSRP1 alone [4]: 7 fold | fold increase of Kd(app) against full-length FACT [5]: 6 fold | Kd [8]: > 1000 nM
Substance: FACTΔCTD (Spt16 acidic C-terminal domain truncation + SSRP1) (from UniProt Q9Y5B9;Q08945) (complex)

Kd [4]: 67 nM | Kd [6]: > 1000 nM
Substance: SSRP1 (structure-specific recognition protein 1) subunit of FACT (from UniProt Q08945 1-709) (natural protein)

Kd [5]: 85 nM
Substance: Spt16 (Suppressor of ty 16) subunit of FACT (from UniProt Q9Y5B9 1-1047) (natural protein)
